From paper PMC5614878

Experiments:
[1] = target: HIV-1 reverse transcriptase p66 p66 (Human immunodeficiency virus 1) (UniProt O93215); settings: cited from earlier work
[2] = target: p51 (polymerase domain of HIV-1 reverse transcriptase) (HIV-1) (UniProt P03366); assay: NMR

**Q.** With “HIV-1 reverse transcriptase p66 p66 (from UniProt O93215)” as the substance, how does the Kd [1] read?
**A.** Its Kd is 4 µM.

**Q.** For “p51 (polymerase domain of HIV-1 reverse transcriptase) (from UniProt P03366 600-1025) (domain or fragment)”, which percent dimeric [2] is on record?
**A.** The percent dimeric was 80%.

**Q.** And the stoichiometry N [2]?
**A.** The stoichiometry N was 2.
